In general, stoichiometry N refers to the number of molecules, sites or subunits per partner or assembly.

The data set deals with the molecule itself. Briefly: SEC-MALS.

B1: Strep-tagged glucose-6-phosphate dehydrogenase (G6PDH) from Synechocystis (enzyme)
chain: not shown
For B1, the “stoichiometry N” value turned out to be 4.

The values above are taken from article doi:10.1101/2021.04.15.439997 (bioRxiv, 2021).
